Experimental data from article PMC5271678.

System: GST-CELF1 (recombinant human CELF1) (Homo sapiens)
Test: EMSA
Conditions: 3 fmol RNA with increasing GST-hCELF1, 5% native polyacrylamide gel; buffer, salt, pH and temperature not given (cited ref 31)

| Substance | Kd [nM] |
| --- | --- |
| 7SL RNA fragment (negative control) | > 300 |
| Srp9 3'UTR fragment | 0.84 |
| Srp14 3'UTR fragment | 12.4 |
| Srp19 3'UTR fragment | 33.8 |
| Srp54 3'UTR fragment | 13.5 |
| Srp68 3'UTR fragment | 1.64 |
| Srp72 3'UTR fragment | 0.53 |
